Laboratory results as given in article PMC5778469.

Target: T1, Cascade (type I-E effector complex) (Escherichia coli, UniProt Q46901;P76632;Q46899;Q46898;Q46897 1-502;1-160;1-363;1-224;1-199)
T1 sequence 1: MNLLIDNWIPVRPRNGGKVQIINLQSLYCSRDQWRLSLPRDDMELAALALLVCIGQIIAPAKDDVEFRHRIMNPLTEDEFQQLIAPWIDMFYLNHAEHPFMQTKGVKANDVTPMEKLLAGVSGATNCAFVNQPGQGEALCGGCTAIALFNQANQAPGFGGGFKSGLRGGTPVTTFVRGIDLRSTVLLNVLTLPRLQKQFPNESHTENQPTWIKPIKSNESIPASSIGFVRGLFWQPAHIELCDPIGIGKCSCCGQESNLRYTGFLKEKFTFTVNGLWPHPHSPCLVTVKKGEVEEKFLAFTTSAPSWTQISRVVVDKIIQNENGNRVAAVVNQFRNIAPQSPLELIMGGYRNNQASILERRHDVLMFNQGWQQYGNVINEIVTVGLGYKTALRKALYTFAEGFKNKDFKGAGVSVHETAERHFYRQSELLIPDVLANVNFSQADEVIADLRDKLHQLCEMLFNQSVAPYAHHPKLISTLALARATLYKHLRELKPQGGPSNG
T1 sequence 2: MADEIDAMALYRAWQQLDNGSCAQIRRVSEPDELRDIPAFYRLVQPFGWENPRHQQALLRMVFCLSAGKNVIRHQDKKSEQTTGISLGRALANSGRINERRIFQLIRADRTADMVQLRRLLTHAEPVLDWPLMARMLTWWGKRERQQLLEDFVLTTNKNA
T1 sequence 3: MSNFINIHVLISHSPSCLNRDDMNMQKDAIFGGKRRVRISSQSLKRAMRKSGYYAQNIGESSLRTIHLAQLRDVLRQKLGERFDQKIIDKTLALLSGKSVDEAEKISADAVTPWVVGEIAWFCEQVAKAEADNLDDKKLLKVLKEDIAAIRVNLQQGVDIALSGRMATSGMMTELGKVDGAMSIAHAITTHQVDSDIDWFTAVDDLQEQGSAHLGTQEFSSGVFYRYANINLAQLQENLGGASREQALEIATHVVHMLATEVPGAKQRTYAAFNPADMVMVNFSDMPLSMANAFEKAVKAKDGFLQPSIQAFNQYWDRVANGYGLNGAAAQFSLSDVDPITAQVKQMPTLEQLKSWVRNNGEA
T1 sequence 4: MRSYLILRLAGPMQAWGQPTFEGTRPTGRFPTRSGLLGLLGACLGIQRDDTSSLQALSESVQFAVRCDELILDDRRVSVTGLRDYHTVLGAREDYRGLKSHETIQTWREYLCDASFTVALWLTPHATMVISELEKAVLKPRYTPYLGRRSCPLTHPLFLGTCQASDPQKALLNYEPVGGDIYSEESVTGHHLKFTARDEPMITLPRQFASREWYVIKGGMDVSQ
T1 sequence 5: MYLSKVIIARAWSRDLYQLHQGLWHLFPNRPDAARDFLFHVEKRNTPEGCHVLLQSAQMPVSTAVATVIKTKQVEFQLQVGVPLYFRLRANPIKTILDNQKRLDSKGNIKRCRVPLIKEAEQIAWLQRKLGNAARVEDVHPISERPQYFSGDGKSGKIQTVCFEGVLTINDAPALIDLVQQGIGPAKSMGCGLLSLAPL
Test: EMSA

B1: sp8 target, 5-ghmC, with Cascade crRNA sp8 (dsDNA)
DNA 1: TTCATTTGATGCTCGATGAGTTTTTCTAAAAGCTGACGACCGGGTCTCCGCAAGTGGCACTTTTCCATGACCAAAATCCCTTAACGTGAGTTTTCGTT
DNA 2: AACGAAAACTCACGTTAAGGGATTTTGGTCATGGAAAAGTGCCACTTGCGGAGACCCGGTCGTCAGCTTTTAGAAAAACTCATCGAGCATCAAATGAA
modifications: glucosyl-5-hydroxymethylcytosine replacing C; exact positions not stated
B1: no binding.
